Holding throughout (assay type): cell-based
Assay [1] has as its system E2F tumour cell line (E2F4 tumour cells). The following applies: 24 hours; 33 μM peptide, 33 μM etoposide. The procedure:
After 24 hours random regions of the culture dish were examined and the percentage of nonviable cells determined by counting cells with an abnormal morphology.
At 24 hours post treatment cellular morphology was noted and those with a rounded abnormal appearance were scored as dead.
Cells were cultured as above.

Another assay deals with T1, DP-1/E2F-1 interaction (UniProt Q01094+Q08639, A172G/L173G).
T1 construct: expressed in transfected cells; host or cells: yeast strain CTY10-5d
T1 sequence (Q01094 whole entry): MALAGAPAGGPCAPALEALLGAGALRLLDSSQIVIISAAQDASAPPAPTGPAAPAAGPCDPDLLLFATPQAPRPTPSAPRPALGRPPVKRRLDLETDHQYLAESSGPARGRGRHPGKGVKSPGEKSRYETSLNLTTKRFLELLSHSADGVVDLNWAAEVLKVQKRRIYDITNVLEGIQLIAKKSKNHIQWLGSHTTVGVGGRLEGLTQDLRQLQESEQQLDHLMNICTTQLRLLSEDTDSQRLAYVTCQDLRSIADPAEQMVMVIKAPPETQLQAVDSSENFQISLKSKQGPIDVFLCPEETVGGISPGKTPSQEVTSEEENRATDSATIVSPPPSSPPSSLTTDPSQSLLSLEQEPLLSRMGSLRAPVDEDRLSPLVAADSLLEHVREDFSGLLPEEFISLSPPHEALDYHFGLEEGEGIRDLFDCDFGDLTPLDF
T1 sequence (Q08639 whole entry A172G/L173G): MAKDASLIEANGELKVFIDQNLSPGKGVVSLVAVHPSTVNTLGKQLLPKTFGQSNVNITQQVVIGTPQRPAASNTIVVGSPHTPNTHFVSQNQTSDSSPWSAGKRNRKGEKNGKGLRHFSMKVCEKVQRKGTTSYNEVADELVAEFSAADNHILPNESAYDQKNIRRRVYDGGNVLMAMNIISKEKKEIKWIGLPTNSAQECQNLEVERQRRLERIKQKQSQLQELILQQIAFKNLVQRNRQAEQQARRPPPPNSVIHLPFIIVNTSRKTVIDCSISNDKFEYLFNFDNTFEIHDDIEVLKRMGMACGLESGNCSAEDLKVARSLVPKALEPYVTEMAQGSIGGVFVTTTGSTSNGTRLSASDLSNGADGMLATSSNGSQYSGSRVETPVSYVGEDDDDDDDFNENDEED
Briefly: yeast two-hybrid assay LexA-DP-1 / GAL4 activation domain-E2F-1. To be noted: A172 and L173 changed to glycine. From the text:
(§1) To study the role of the DEF box region in the context of the wild-type DP-1 protein, we took advantage of a yeast assay previously used to assess the properties of the DP-1/E2F heterodimer (23,31). When assayed in the context of two-hybrid proteins, with DP-1 is fused the LexA DNA binding domain and E2F-1 to the transcriptional activation domain of GAL4, transcriptional stimulation of a reporter construct driven by LEXA DNA binding sites was apparent only when both proteins were expressed together. Similarly, transcriptional activation of a reporter gene driven by physiological E2F DNA binding sites, in p4xWT.CYC1 (23,31), was dependent upon the presence of both proteins.
(§2) The yeast two-hybrid expression plasmids used were PLEX(HIS) which contains the complete LexA coding sequence, pGAD.L6 which contains the Gal 4 transcription activation domain. pLEX(HIS).DP-1 contains the murine DP-1 fused to the C-terminus of the LexA coding sequence and GAD.E2F-1 the human E2F-1 downstream of the Gal4 activation domain; all constructs were as described previously (23,31), apart from pLEX-DP-1/MT which contained DP-1 with residues 172 and 173 altered to glycine residues. Yeast strain CTY10-5d was used for the two-hybrid assay and W3031a, which carries p4xWT.CYC 1, for the E2F site-dependent transcription assay (23,31).

Assay [2] concerns E2F site-dependent transcription. Briefly: yeast E2F binding site reporter assay (p4xWT.CYC1). The following applies: A172 and L173 changed to glycine.
Description: as §1, §2

For `COc1cc([C@@H]2c3cc4c(cc3[C@@H](O[C@@H]3O[C@@H]5CO[C@@H](C)O[C@H]5[C@H](O)[C@H]3O)[C@H]3COC(=O)[C@H]23)OCO4)cc(OC)c1O` [etoposide], the “cell death (cells with rounded abnormal appearance scored as dead)” value in assay [1] was “approximately 15%”.

B1: DP-1^172/173: mutant DP-1 protein with residues A172 and L173 changed to glycine (protein, UniProt Q14186 1-410, looked up, variant A172G L173G)
Transcription factor Dp-1: MAKDAGLIEANGELKVFIDQNLSPGKGVVSLVAVHPSTVNPLGKQLLPKTFGQSNVNIAQQVVIGTPQRPAASNTLVVGSPHTPSTHFASQNQPSDSSPWSAGKRNRKGEKNGKGLRHFSMKVCEKVQRKGTTSYNEVADELVAEFSAADNHILPNESAYDQKNIRRRVYDGGNVLMAMNIISKEKKEIKWIGLPTNSAQECQNLEVERQRRLERIKQKQSQLQELILQQIAFKNLVQRNRHAEQQASRPPPPNSVIHLPFIIVNTSKKTVIDCSISNDKFEYLFNFDNTFEIHDDIEVLKRMGMACGLESGSCSAEDLKMARSLVPKALEPYVTEMAQGTVGGVFITTAGSTSNGTRFSASDLTNGADGMLATSSNGSQYSGSRVETPVSYVGEDDEEDDDFNENDEDD
As to B1, the “reduction of activity relative to wild-type DP-1 in two-hybrid assay” value with DP-1/E2F-1 interaction is given as “about 50%”. Also, in assay [2], the “reduction of response of E2F binding site reporter” value is recorded as “about 50%”.

Values taken from US7160981B2, “Peptide antagonists of DP transcription factors” (Prolifix Limited, priority 1996, dated 2007).
